The record followed here is patent publication US5843749, “Ehk and Ror tyrosine kinases” (Regeneron Pharmaceuticals, Inc., dated 1998).

Assay [1] deals with human low affinity nerve growth factor receptor (LNGFR) (human, UniProt P08138). In words: competition of cross-linking, competitor 125I-NT-3, pCMX-LNGFR COS cells.
For assay [2], the target named is rat trkB (full-length, pCMX-trkB or pLTR-trkB) (rat) (UniProt Q63604).
Assay [3] concerns the target rat trkB (full-length, pCMX-trkB or pLTR-trkB) (rat, UniProt Q63604). In words: DSS cross-linking of 125I-NGF to COS cells transfected with pCMX-trkB. How it is done: COS-M5 cells were transiently transfected with either the pCMX-LNGFR, pCMX-trkB, or control vector (pCMX) by the DEAE-dextran transfection protocol. Briefly, COS-M5 cells were plated at a density of 1.5 ×10^6 cells per 100 mm plate 24 hours prior to transfection. For transfection, the cells were cultured in serum-free DMEM containing 400 μg/ml of DEAE-dextran, 1 μM chloroquine, 2 mM glutamine, 20 μg/ml insulin, 5 μg/ml transferrin, 33 nM sodium selenite, and 5 μg of the appropriate DNA for 3 hours and 15 minutes at 37° C. in an atmosphere of 5% CO2. The transfection media was aspirated and replaced with phosphate-buffered saline with 10% DMSO for 2 min. Following this DMSO "shock", the COS-M5 cells were placed into DMEM with 10% FBS, 1% each of penicillin and streptomycin, and 2 mM glutamine for 48 hours.
Cells were harvested in phosphate-buffered saline containing 1 mM EDTA, 1 mg/ml glucose and 25 mM HEPES (PBS-versene) and resuspended at an appropriate density (generally 1 ×10^6 cells per ml) in ice-cold binding buffer A (PBS containing 1 mg/ml each of BSA and glucose). pCMX-trkB or pCMX vector transfected COS-M5 cells (4 ×10^5 cells) were incubated on ice with ^125I-labeled neurotrophins (final concentration estimated to be between 0.1 and 0.25 nM) for 90 minutes in the absence or presence of unlabeled NGF, BDNF or NT-3 (see FIGS. 1 and 3). […]

Where only a bound is given, the exact number is not on record here.

B1: neurotrophin-3 (human NT-3, produced in CHO cells) (ligand)
chain: YAEHKSHRGEYSVCDSESLWVTDKSSAIDIRGHQVTVLGEIKTGNSPVKQYFYETRCKEARPVKNGCRGIDDKHWNSQCKTSQTYVRALTSENNKLVGWRWIRIDTSCVCALSRKIGRT
modifications: radioiodinated (125I, lactoperoxidase method) where used as the labeled ligand
Consider B1, for which, in assay [1], the binding result was “binds”. In assay [2], the dose-response survival assay of trkB-expressing NIH3T3 cells, concentration at which effects are discernible turned out to be 50 pM and the dose-response survival assay of trkB-expressing NIH3T3 cells, effectiveness against BDNF is less than 10 fold.

B2: brain derived neurotrophic factor (human BDNF, produced in CHO cells) (ligand)
chain: HSDPARRGELSVCDSISEWVTAADKKTAVDMSGGTVTVLEKVPVSKGQLKQYFYETKCNPMGYTKEGCRGIDKRHWNSQCRTTQSYVRALTMDSKKRIGWRFIRIDTSCVCTLTIKRGR
modifications: radioiodinated (125I, lactoperoxidase method) where used as the labeled ligand
Take B2: in assay [1], the binding result is “binds”. Further, the dose-response survival assay of trkB-expressing NIH3T3 cells, concentration at which activity is obvious in assay [2] was in the range of 0.5 to 5 pM.

B3: Murine 2.5S NGF (ligand)
chain: SSTHPVFHMGEFSVCDSVSVWVGDKTTATDIKGKEVTVLAEVNINNSVFRQYFFETKCRASNPVESGCRGIDSKHWNSYCTTTHTFVKALTTDEKQAAWRFIRIDTACVCVLSRKATR
modifications: radioiodinated (125I, lactoperoxidase method) where used as the labeled ligand
On to B3, for which, in assay [3], the binding result is on record as “no binding”.
